We go through one molecule from patent US20030215852A1 (Pfizer, published 2003).

The assay deals with T1, Pablo (pro-apoptotic Bcl-XL binding protein) (human, UniProt Q92558 1-559).
T1 sequence: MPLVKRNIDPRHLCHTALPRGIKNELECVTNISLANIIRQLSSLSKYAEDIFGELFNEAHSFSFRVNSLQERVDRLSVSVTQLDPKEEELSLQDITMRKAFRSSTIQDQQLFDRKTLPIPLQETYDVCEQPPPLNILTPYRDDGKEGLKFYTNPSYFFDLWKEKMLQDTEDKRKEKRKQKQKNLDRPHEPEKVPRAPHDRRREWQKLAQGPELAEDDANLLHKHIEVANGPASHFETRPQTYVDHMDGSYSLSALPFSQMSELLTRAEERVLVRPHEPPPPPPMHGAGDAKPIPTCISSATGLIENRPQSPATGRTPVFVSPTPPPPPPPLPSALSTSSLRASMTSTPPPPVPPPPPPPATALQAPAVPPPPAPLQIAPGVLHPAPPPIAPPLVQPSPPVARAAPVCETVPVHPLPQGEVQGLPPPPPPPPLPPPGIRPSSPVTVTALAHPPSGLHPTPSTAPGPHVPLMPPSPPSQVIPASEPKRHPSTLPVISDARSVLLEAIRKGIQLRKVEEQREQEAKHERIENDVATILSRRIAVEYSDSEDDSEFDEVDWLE
Briefly: yeast two-hybrid assay.

B1: pancortin 1 (other)
chain: MITNWMSQTLPSLVGLNTTKLSAAGGGTLDRSTGVLPTNPEESWQVYSSAQDSEGRCICTVVAPQQTMCSRDARTKQLRQLLEKVQNMSQSIEVLDRRTQRDLQYVEKMENQMKGLESKFKQVEESHKQHLARQFKAIKAKMDELRPLIPVLEEYKADAKLVLQFKEEVQNLTSVLNELQEEIGAYDYDELQSRVSNLEERLRACMQKLACGKLTGISDPVTVKTSGSRFGSWMTDPLAPEGDNRVWYMDGYHNNRFVREYKSMVDFMNTDNFTSHRLPHPWSGTGQVVYNGSIYFNKFQSHIIIRFDLKTETILKTRSLDYAGYNNMYHYAWGGHSDIDLMVDESGLWAVYATNQNAGNIVVSRLDPVSLQTLQTWNTSYPKRSAGEAFIICGTLYVTNGYSGGTKVHYAYQTNASTYEYIDIPFQNKYSHISMLDYNPKDRALYAWNNGHQILYNVTLFHVIRSDEL
notes: Tested in a yeast two-hybrid assay; also called BMZ
Turning to B1, the binding result is listed as “no binding”.
